According to the nanobody polyreactivity screen of Harvey et al. (2022):

Assay: yeast display, Sf9 membrane polyspecificity reagent, FACS + sequencing; frameworks hold sequencing errors
In short: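 Nanobodies came from a synthetic yeast display library in Saccharomyces cerevisiae BJ5465, induced with galactose for 36–48 hours and stained for 1 hour at 4 °C with 10% biotinylated, detergent-solubilized Sf9 membrane reagent. Cells were enriched on streptavidin microbeads and then FACS-sorted, with low and high (top ~1%) gates set on anti-HA fluorescence for expression and streptavidin fluorescence for reagent binding. Each polyreactivity label reflects the gate a clone came from. Genes were amplified by colony PCR, sequenced by MiSeq 2 × 250 and filtered by CDR length.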

Row | Sequence | polyreactivity (PSR sort gate)
1 | QVQLVESGGGLVKAGGSLRLSCAASGSTFVGYAMGWYRQAPGKEREIVAAITRGGSTNYADSVKGRFTISRDNAKNTVYLQMNSLKPEDTAVYYCAARDRREGFNFDYWGQGTQVTVSS | low polyreactivity
2 | QVQLVESGGGLVQAGGSLRLICAASGRTFGRNAMGWYRQAPGKERELVAAISYGGGSTYYADSVKGRFTISRDNAKNTVYLQMNSLKPEDTPGSAAAARYAYGMWGQGTQVTVSS | low polyreactivity
3 | QVQLVESGGGLVQAGGSLRLSCAASGSTFDDYDMGWYRQAPGKEREFVATIDWSGGSTYYADSVKGRFTNSRDNAKNTVYLQMNSLKPEDTAVYYCTALRYVVYFDDDYWGQGTQVTVSS | high polyreactivity
4 | QVQLVESGGGLVQAGGSLRLSCAAYGIIFTWYVMGWYRQAPGKERELVAAISASGASTYYADSVKGRFTISRDNAKNTVYLQMNSLKPEDTAVYYCAARYGWYPVRQPRPGGDYWGQGTQVTVSS | high polyreactivity
5 | QVQLVESGGGLVQAGGSLRLSCAASGRIFYVNAMGWYRQAPGKERELVATIRRGGDTNYADSVKGRFTISRDNAKNTVYLQMNSLKPEDTAVYYCASKAYQSSYQRYYWGQGTQVTVSS | high polyreactivity
6 | QVQLVESGGGLVQAGGSLRLSCAASGFILAWYAMGWYRQAPGKERELVAAISTSGDSTYYADSVKGRFTISRDNAKNTVYLQMNSLKPEDTAVYYCAAGTFKPYWRKFEYWGQGTQVTLSS | high polyreactivity
7 | QVQLVDSGGGLVQAGGSLRVSCAASGRIFSGHAMGWYRQAPGKVRELVAAITSGGDDTYYADSVKGRFTISRDNAKNTVYLQMNSLKPEDTAVYYCAARYLGYTYYYWGQGTQVSVSS | low polyreactivity
8 | QVQLVESGGGLVQAGGSLRLSCAASGFIFTNYAIGWYRQAPGKVRELVATISSGGGSTYYADSVKGRFTISRDNAKNTVYLQMNSLKQEDTAVYYCAASRRITGIRYINRYEYWGQGTQVTVSS | high polyreactivity
9 | QVQLVESGGVLVQAGGSLRLSCAASGRTLFHYAMGWDRQAPGKERELVAAIRNSDGSTYYADSVKGRFTISRDNAKNTVYLQMNSLKPEDTAVYYCAAKYKYRTNNYWGQGTQVTVSS | high polyreactivity
10 | QGQLVESGGGLVQAGASLSLTSDDYRTIVKTYAMGSYRPAPGKESEMVAAISWRGGSTYYADSVKGRITISRDNAKNTVYLQMNSMKPVDTAVYYCVAVRNFGTRTLWYRYGYWGQGSQVTVSS | high polyreactivity
11 | QVQLHESGGGLVQAGGGLRLSCAASGSISSTGFMGWYRQAPGKEREPVAAIAPGTTTYYADSVKGRFTISRDNAKNTVYLQMNSLRPEDTAVFYCAVFTDNRVSFRYWGQGTQVTVSS | low polyreactivity
12 | QVQHVESGGGLVQAGCSLRLCCAASGSTFGGYAMGWSSQAHGNERELVAGITIAVCSTYYADSVKGRFTISRDNAKNTVYLQMNSLKPEDTAVYYCAADGLSWYNYWGPGTQVTVSS | high polyreactivity
13 | QVQLVESGGGLVQAGGSLRLSCAASGSTFWWNTMGWYRQAPGKESELVADIRTSGGGTYYADSVKGRFTISRDNAKNTVYLQMNSLKPEDTAVYYCNADPKWEMGSWGQGTQVTVSS | low polyreactivity
14 | QVQLVESGGGLVQAGGSLRLSCAASGIIFSIYVMGWYRQAPGKERELVAAISSNGGSTYYADSVKGRFTISRDNAKNTVYLQMNSLKPEDTAVYYCAAVSRSHYYYWGQGTQVTVSS | high polyreactivity
15 | QVQLVESGGGLVQAGGSLRLSCAASGRIFGGYAMGWYRQAPGKERELVAVITDGGSTNYADSVKGRFTISRDNAKNTVYLQMNSLKPEDTAVYYCAADSDGDEPPYDYWGQGTQVTVSS | low polyreactivity
16 | QVQLVESGGGLVQAGGSLRLSCAASGSNFRVYAMGWYSQAAGKERELVAAISRSGSITYYADSVKGRFTISRDNAKNTVYLQMNSLKPEDTAVYYCAARTYCRFTASTYYYWGQGTQVTVSS | high polyreactivity
17 | QVQLVESGGGLVQAGGSLRLSCAASGSTSNLYAMGWYIQAPGKERELVAAITSIDGGTYYADSVKGRFTISRDNAKNTVYLQMNSLKAEDTAVYYCNAEDRFFYWGGYDYWGQGTQVTVSS | low polyreactivity
18 | QVQLVESGGGLVQAGGSLRLSCAASGSTFDPNVMGWYRQAPGKERELVAAISSIGGSTYYADSVKGRFTISRDNAKNTVYLQMNSLNPQDTAVYYCAAGYPRFGYDYWGQGTQVTVSS | high polyreactivity
19 | QVQLVESGGGLVQAGGSLRLSCAASGSTLLYYAMGWSRQAPGKERELVAAITSGARTYYADSVKGRFTISRDNAKNTVYLQMNSLKPEDTAVYYCNAYRTSWWRAYDYWGQGTQVTVSS | high polyreactivity
20 | QVQLVESGGGLVQAGGSLRLSCAASGYTFVWYAMGWYRQAPGKERELVAAISASGGSTYYADSVKGRFTISRDNAKNTVYLQMNSLKPEDTAVYYCNAVGALSVYGGNGYWGQGTQVTVSS | high polyreactivity
21 | QVQLVESGGGLVQAGGSLRLICAASGSTFRWNALRWYRQAPGKERELVAAITWSGGSTYYADSVKVRFTISRDNAKNTVYVQMNSLKPEDTAVYYCNACGLFQYDSWGQGTKVTVSS | low polyreactivity
22 | QVQLVESGGGLVPAGGSLRLSCAASGSTFNGYPMGWYRQAPGKEREFVATITFSDGSTYYADSVKGRFTISRDNAKNTVYLQMNSLKPEDTAVYYCNVDSRIGYDYWGQGTQVTVSS | low polyreactivity

Row | Sequence | polyreactivity (PSR sort gate)
23 | HVQLVESGGGLVQAGGSLRLSCAASGRILSRNAMGRYRPAPGKERELVAAISISGGSTYYADSVKGRFTISRDNAKNTVYLQRNSLKPEDTAVYYCNTAYYGYRKYDYWGQGTQVTVSS | high polyreactivity
24 | QVQLVESGGGLVQAGGSLRLSCAASGRTFWNYAMGWYRQAPGKERELVAVIRFSDGSTYYADSVKGRFTISRDNAKNTVYLQMNSLKPEDTAVYYCADIGPRRWGSGFDYWGQGTQVTVSS | low polyreactivity
25 | QVQLVESGGGLVQAGGSLRLSCAASGRTFASYAMGWYRQAPGKERELVAVISRGGSNTNYADSVTGRFTISRDNAKNTVYLQMNSLKPEDTAVYYCADLAFKRYNPGGYDYWGQGTQVTVSS | high polyreactivity
26 | QVQLVESGGGLVQAGGSLRLSCAASGITFSVYTMGWYRQAPGKERELVAAIDSDGITNYADSVKGRFTISRDNAKNNVYLQMNSLKPEDTAVYYCAKQSGRADGVSGFDYWGQGTQVTVSS | low polyreactivity
27 | QVQLVESGGGLVQAGGSLRLSCAASGRTFRVYAIGWYRQAPGKEREFVATISVRGGSTYYADSVKGRFTISRDNAKNTVYLQMNSLKPEDTAVYYCAADSYPYVYALYDSWGLGTQVTVSS | low polyreactivity
28 | QVQLVESGGGLVQAGGSLRLSCAASGRILGRYAMGWYRQAPGKERELVATITSGDDTNYADSVKGRFTISRDNAKNTVYLQMNSLKPEDTAVGYWGQGTQVTVSS | low polyreactivity
29 | QVQLVESGGGLVQAGGSLRLSCAASGRTFYRYAMGWYRQAPGKEREFVAAISNGGSNTRYADSVKGRFTISRDNATNTVYLQMNSLKPEDTAVYYCAASAYQHYNWGQGTQVTVSS | high polyreactivity
30 | QVQLVESGGGLVQAGGSLRLSCAASGSTFHRYAMGWYRQAAGKERELVATITSRGGITYYADSVKGRFTISRDNAKNTVYLQMNSLKPEDTAVYYCNTEDGTTPQYGYDQGMYYWGQGTQVTVSS | low polyreactivity
31 | QVQLVESGGGLVQAGGSLRLSCAASGSIFRPYAMGWYRQAPGKERELVAGITWGGSRTYYADSVKGRFTISRDNAKNTVYLQMNSLKPEDTAVYYCAAYPSTNGYIYYYWGQGSQVTVSS | high polyreactivity
32 | QVQLVESGGGLVQAGGSLRLSCAASGIIFRAYAMGWYRPAPGKERELVAAISRSGGSTYYADSVKGRFTISRDNAKNTVYLQMNSLKQEDTAVYYCAADTVWYLYYYWGQGSQVTVSS | high polyreactivity
33 | QAQLVESGGGLVQAGGSLRLSCAASGYTFTANVMGWYRQAPGKERELVAAISWSGTSTSYADSVKGRFTISRDNAKNNVYLQMNSLKPEDTAVYYCNTVPYYTGSNGYWGQGTQVTVSS | low polyreactivity
34 | QVQLVESVGGLVQAGGSLRLSCAASGSTFTSNAMGWYRQAPGKEREFVAAISVGGGITYYADSVKGRFTISRDNAKNTVYLQMNSLKPEDTAVYYCAADAWSVILWREMDYWGQGTQVTVSS | low polyreactivity
35 | QVQLVESGGGLVQAGGSLRLSCAASGSITVPYGMGWYRQAPGKERELVAAITGGSTNYADSVKGRFTISRDNAKNTVYLQMNSLKPEDTAVYYCAADWWALYTRYDYWGQGSQVTVSS | low polyreactivity
36 | QVQLVESGGGLVQAGGSLRLSCAASGYTFYIYAMGWSRQAPGKERELVATISSSGGGTYYADSVKGRFTISRDNAKNTVYFQMYSQKPEDTAVYDCNAAGWYWQAEGYDYWGQGTQVTVSS | low polyreactivity
37 | QVQLVESGGGLVQAGGSLRLSCAASGSIFYLYAMGWYRQAPGKERELVATITASGGSTNYADSVKGRFTISRDNAKNTVYLQMNSLKPEDTAVYYCAAEYYYLVYYYKEIVAYDYWGQGTQVTVSS | high polyreactivity
38 | QVQLVESGGGLVQAGGSLRLSCAASGGTFGYNAMGWYRQAPGKERELVAAISYTGDSTYYADSVKGRFTISRDNAKNTVDLQMNSLKPEDTAVYYCAASVYYYRYNYWGQATQVTVSS | low polyreactivity
39 | QVQLVESGGGLVQAGGSLRLSCAASGRTFYYYVMGWYIQAPGKERELVAAITLRGGSTYYADSVKGRFTISRDNAKNTVYLQMNSLKPEDTAVYYCNARGGSSTYGNYYWGQGTQVTVSS | low polyreactivity
40 | QVQLVESGGGLVQAGGSLRLSCAAYGFTFGVYALGWYRQAPGKERELVAAISRIGGRTYYADSLKGRYTISRDNAKNTVYVQMNSLKPEDTAVYYCAESPRQGMYYWGQGTQVTVSS | high polyreactivity
41 | QVQLVESGGGLDQAGGSLRLSCAASGFIFPGNAMGWYRQAPGKERELVAAISWRVGRTYYADSVKGRFTISRDNAKNTVYLQMNSLKPEDTAVYYCAVARSSPEYYYWGQGTQVTVSS | high polyreactivity
42 | QVQLVESRGGLVQAGGSLRLSCAASGSTFDGNAMGWYRQAPGKERELVAAISIGGSTSYADSVKGRFTISRDNAKNTVYLQMNSLNPEDTAVYYCAADRYRTFYQWKRYRYDYWGQGTQVTVSS | high polyreactivity
43 | QVQLVESGGGLVQAGGSLRLSCAASGFTFAYNAMGWYRQAPGKEREFVAAITSSGGSTYYADSVKGRFTISRDYAKNTVYLQMNSLKPEHTAVYYCNAYYTFPRYQYGYWGQGTQVTVSS | high polyreactivity
